Experiment [1] addresses soluble Her2 (Her2 extracellular ligand binding domain, residues 1-653, fused to the FLAG sequence) (UniProt P04626). The experiment in a line: EIA, plate coated with sHer2, control IgG at 10 ng/ml, absorbance at 405 nm.
For experiment [2], the target named is soluble Her3 (Her3 extracellular domain) (UniProt P21860). The experiment in a line: EIA, plate coated with sHer3, control IgG at 100 µg/ml, absorbance at 405 nm.
Experiment [3] has as its target soluble Her4 (Her4 receptor extracellular domain, residues 1 to 639) (human) (UniProt Q15303). The experiment in a line: EIA, plate coated with sHer4, control IgG at 100 µg/ml, absorbance at 405 nm.
Chain of UniProt Q15303 (Q15303 other isoform, or with tags, fused parts or gaps limits assumed, form in doubt): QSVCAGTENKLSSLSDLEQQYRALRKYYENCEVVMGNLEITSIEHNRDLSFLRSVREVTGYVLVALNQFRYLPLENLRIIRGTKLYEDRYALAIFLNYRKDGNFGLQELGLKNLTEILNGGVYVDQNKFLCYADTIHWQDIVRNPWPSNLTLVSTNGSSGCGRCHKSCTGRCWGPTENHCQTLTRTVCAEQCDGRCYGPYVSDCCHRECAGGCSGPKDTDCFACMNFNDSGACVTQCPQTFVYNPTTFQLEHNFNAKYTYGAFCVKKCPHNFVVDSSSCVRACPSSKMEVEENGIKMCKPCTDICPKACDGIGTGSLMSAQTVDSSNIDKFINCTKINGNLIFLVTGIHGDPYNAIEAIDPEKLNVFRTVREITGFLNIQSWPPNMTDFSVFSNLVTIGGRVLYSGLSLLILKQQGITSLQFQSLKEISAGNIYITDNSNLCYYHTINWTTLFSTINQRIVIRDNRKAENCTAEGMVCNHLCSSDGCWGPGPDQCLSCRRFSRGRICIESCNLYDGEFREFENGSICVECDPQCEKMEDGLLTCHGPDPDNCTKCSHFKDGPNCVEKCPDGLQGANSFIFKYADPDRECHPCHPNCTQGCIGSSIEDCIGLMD

O.D. of 10 ng/ml and O.D. of 100 ug/ml data for one substance are collected here from patent US8444990.

Chain of UniProt P21860 (P21860 20-643 limits assumed): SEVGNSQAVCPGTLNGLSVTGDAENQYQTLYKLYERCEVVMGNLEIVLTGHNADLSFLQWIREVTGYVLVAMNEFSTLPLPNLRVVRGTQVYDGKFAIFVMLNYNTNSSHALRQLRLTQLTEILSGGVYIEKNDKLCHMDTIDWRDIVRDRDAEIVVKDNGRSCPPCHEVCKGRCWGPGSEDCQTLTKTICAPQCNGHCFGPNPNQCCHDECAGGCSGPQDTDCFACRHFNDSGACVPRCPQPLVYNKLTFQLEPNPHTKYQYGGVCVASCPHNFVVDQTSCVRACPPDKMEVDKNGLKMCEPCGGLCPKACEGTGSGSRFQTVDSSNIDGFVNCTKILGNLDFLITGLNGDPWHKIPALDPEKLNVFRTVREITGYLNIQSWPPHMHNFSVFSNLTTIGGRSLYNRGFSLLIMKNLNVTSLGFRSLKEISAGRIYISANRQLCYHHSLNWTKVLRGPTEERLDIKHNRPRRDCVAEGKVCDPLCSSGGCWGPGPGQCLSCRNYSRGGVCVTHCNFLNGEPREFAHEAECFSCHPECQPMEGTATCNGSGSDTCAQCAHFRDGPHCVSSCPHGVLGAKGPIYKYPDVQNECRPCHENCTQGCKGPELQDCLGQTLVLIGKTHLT

In experiment [1], Mouse IgG (antibody) gave an O.D. of 10 ng/ml of 0.09 O.D. In addition, the O.D. of 100 ug/ml in experiment [2] was 1.2 O.D; in experiment [3] it was 0.9 O.D.
